Data as given in paper PMC11574045, “A cofactor-induced repressive type of transcription factor condensation can be induced by synthetic peptides to suppress tumorigenesis” (The EMBO Journal, 2024).

Tested on: HEK293FT cells transfected with TF library
Experiment: Screening of TF condensates based on fluorescent puncta
Type: cell-based
Conditions: Figure 1B numerical data; TF library screen, one value per transcriptional factor
In short: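 HEK293FT cells were reverse-transfected with Flag- or GAL4-tagged TF plasmids (1.6 μg/ml, PEI). After 60 h, cells were cultured 12 h with or without glucose, then fixed and immunostained with anti-Flag or anti-GAL4 and Alexa 488 secondaries. Fluorescent puncta were imaged over fifty random fields per well by high-content imaging.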

Molecule | Z score of condensed fraction
HES1 (protein, UniProt Q14469 1-280, looked up) Transcription factor HES-1: MPADIMEKNSSSPVAATPASVNTTPDKPKTASEHRKSSKPIMEKRRRARINESLSQLKTLILDALKKDSSRHSKLEKADILEMTVKHLRNLQRAQMTAALSTDPSVLGKYRAGFSECMNEVTRFLSTCEGVNTEVRTRLLGHLANCMTQINAMTYPGQPHPALQAPPPPPPGPGGPQHAPFAPPPPLVPIPGGAAPPPGGAPCKLGSQAGEAAKVFGGFQVVPAPDGQFAFLIPNGAFAHSGPVIPVYTSNSGTSVGPNAVSPSSGPSLTADSMWRPWRN | -0.8248
HNF4G (protein, UniProt Q14541 1-408, looked up) Hepatocyte nuclear factor …: MNTTDNGVNCLCAICGDRATGKHYGASSCDGCKGFFRRSIRKSHVYSCRFSRQCVVDKDKRNQCRYCRLRKCFRAGMKKEAVQNERDRISTRRSTFDGSNIPSINTLAQAEVRSRQISVSSPGSSTDINVKKIASIGDVCESMKQQLLVLVEWAKYIPAFCELPLDDQVALLRAHAGEHLLLGATKRSMMYKDILLLGNNYVIHRNSCEVEISRVANRVLDELVRPFQEIQIDDNEYACLKAIVFFDPDAKGLSDPVKIKNMRFQVQIGLEDYINDRQYDSRGRFGELLLLLPTLQSITWQMIEQIQFVKLFGMVKIDNLLQEMLLGGASNDGSHLHHPMHPHLSQDPLTGQTILLGPMSTLVHADQISTPETPLPSPPQGSGQEQYKIAANQASVISHQHLSKQKQL | 0.7637
HMX2 (protein, UniProt A2RU54 1-273, looked up) Homeobox protein HMX2: MGSKEDAGKGCPAAGGVSSFTIQSILGGGPSEAPREPVGWPARKRSLSVSSEEEEPDDGWKAPACFCPDQHGPKEQGPKHHPPIPFPCLGTPKGSGGSGPGGLERTPFLSPSHSDFKEEKERLLPAGSPSPGSERPRDGGAERQAGAAKKKTRTVFSRSQVYQLESTFDMKRYLSSSERACLASSLQLTETQVKTWFQNRRNKWKRQLSAELEAANMAHASAQTLVSMPLVFRDSSLLRVPVPRSLAFPAPLYYPGSNLSALPLYNLYNKLDY | 0.8931
HMG20A (protein, UniProt Q9NP66 1-347, looked up) High mobility group protein …: MENLMTSSTLPPLFADEDGSKESNDLATTGLNHPEVPYSSGATSSTNNPEFVEDLSQGQLLQSESSNAAEGNEQRHEDEQRSKRGGWSKGRKRKKPLRDSNAPKSPLTGYVRFMNERREQLRAKRPEVPFPEITRMLGNEWSKLPPEEKQRYLDEADRDKERYMKELEQYQKTEAYKVFSRKTQDRQKGKSHRQDAARQATHDHEKETEVKERSVFDIPIFTEEFLNHSKAREAELRQLRKSNMEFEERNAALQKHVESMRTAVEKLEVDVIQERSRNTVLQQHLETLRQVLTSSFASMPLPGSGETPTVDTIDSYMNRLHSIILANPQDNENFIATVREVVNRLDR | -0.5061
HHEX (protein, UniProt Q03014 1-270, looked up) Hematopoietically-expressed …: MQYPHPGPAAGAVGVPLYAPTPLLQPAHPTPFYIEDILGRGPAAPTPAPTLPSPNSSFTSLVSPYRTPVYEPTPIHPAFSHHSAAALAAAYGPGGFGGPLYPFPRTVNDYTHALLRHDPLGKPLLWSPFLQRPLHKRKGGQVRFSNDQTIELEKKFETQKYLSPPERKRLAKMLQLSERQVKTWFQNRRAKWRRLKQENPQSNKKEELESLDSSCDQRQDLPSEQNKGASLDSSQCSPSPASQEDLESEISEDSDQEVDIEGDKSYFNAG | -0.4373
ARID3C (protein, UniProt A6NKF2 1-412, looked up) AT-rich interactive …: MEALQKQQAARLAQGVGPLAPACPLLPPQPPLPDHRTLQAPEGALGNVGAEEEEDAEEDEEKREEAGAEEEAAEESRPGAQGPSSPSSQPPGLHPHEWTYEEQFKQLYELDADPKRKEFLDDLFSFMQKRGTPVNRVPIMAKQVLDLYALFRLVTAKGGLVEVINRKVWREVTRGLSLPTTITSAAFTLRTQYMKYLYPYECETRALSSPGELQAAIDSNRREGRRQAYTATPLFGLAGPPPRGAQDPALGPGPAPPATQSSPGPAQGSTSGLPAHACAQLSPSPIKKEESGIPNPCLALPVGLALGPTREKLAPEEPPEKRAVLMGPMDPPRPCMPPSFLPRGKVPLREERLDGPLNLAGSGISSINMALEINGVVYTGVLFARRQPVPASQGPTNPAPPPSTGPPSSILP | 0.4617
HMBOX1 (protein, UniProt Q6NT76 1-420, looked up) Homeobox-containing protein 1: MLSSFPVVLLETMSHYTDEPRFTIEQIDLLQRLRRTGMTKHEILHALETLDRLDQEHSDKFGRRSSYGGSSYGNSTNNVPASSSTATASTQTQHSGMSPSPSNSYDTSPQPCTTNQNGRENNERLSTSNGKMSPTRYHANSMGQRSYSFEASEEDLDVDDKVEELMRRDSSVIKEEIKAFLANRRISQAVVAQVTGISQSRISHWLLQQGSDLSEQKKRAFYRWYQLEKTNPGATLSMRPAPIPIEDPEWRQTPPPVSATSGTFRLRRGSRFTWRKECLAVMESYFNENQYPDEAKREEIANACNAVIQKPGKKLSDLERVTSLKVYNWFANRRKEIKRRANIEAAILESHGIDVQSPGGHSNSDDVDGNDYSEQDDSTSHSDHQDPISLAVEMAAVNHTILALARQGANEIKTEALDDD | -0.9564
HESX (protein, UniProt Q9UBX0 1-185, looked up) Homeobox expressed in ES …: MSPSLQEGAQLGENKPSTCSFSIERILGLDQKKDCVPLMKPHRPWADTCSSSGKDGNLCLHVPNPPSGISFPSVVDHPMPEERASKYENYFSASERLSLKRELSWYRGRRPRTAFTQNQIEVLENVFRVNCYPGIDIREDLAQKLNLEEDRIQIWFQNRRAKLKRSHRESQFLMAKKNFNTNLLE | -0.5047
HEYL (protein, UniProt Q9NQ87 1-328, looked up) Hairy/enhancer-of-split …: MKRPKEPSGSDGESDGPIDVGQEGQLSQMARPLSTPSSSQMQARKKHRGIIEKRRRDRINSSLSELRRLVPTAFEKQGSSKLEKAEVLQMTVDHLKMLHATGGTGFFDARALAVDFRSIGFRECLTEVIRYLGVLEGPSSRADPVRIRLLSHLNSYAAEMEPSPTPTGPLAFPAWPWSFFHSCPGLPALSNQLAILGRVPSPVLPGVSSPAYPIPALRTAPLRRATGIILPARRNVLPSRGASSTRRARPLERPATPVPVAPSSRAARSSHIAPLLQSSSPTPPGPTGSAAYVAVPTPNSSSPGPAGRPAGAMLYHSWVSEITEIGAF | 1.497
HLX (protein, UniProt Q14774 1-488, looked up) H2.0-like homeobox protein: MFAAGLAPFYASNFSLWSAAYCSSAGPGGCSFPLDPAAVKKPSFCIADILHAGVGDLGAAPEGLAGASAAALTAHLGSVHPHASFQAAARSPLRPTPVVAPSEVPAGFPQRLSPLSAAYHHHHPQQQQQQQQPQQQQPPPPPRAGALQPPASGTRVVPNPHHSGSAPAPSSKDLKFGIDRILSAEFDPKVKEGNTLRDLTSLLTGGRPAGVHLSGLQPSAGQFFASLDPINEASAILSPLNSNPRNSVQHQFQDTFPGPYAVLTKDTMPQTYKRKRSWSRAVFSNLQRKGLEKRFEIQKYVTKPDRKQLAAMLGLTDAQVKVWFQNRRMKWRHSKEAQAQKDKDKEAGEKPSGGAPAADGEQDERSPSRSEGEAESESSDSESLDMAPSDTERTEGSERSLHQTTVIKAPVTGALITASSAGSGGSSGGGGNSFSFSSASSLSSSSTSAGCASSLGGGGASELLPATQPTASSAPKSPEPAQGALGCL | 2.079
HMG1 (protein, UniProt P09429 1-215, looked up) High mobility group protein B1: MGKGDPKKPRGKMSSYAFFVQTCREEHKKKHPDASVNFSEFSKKCSERWKTMSAKEKGKFEDMAKADKARYEREMKTYIPPKGETKKKFKDPNAPKRPPSAFFLFCSEYRPKIKGEHPGLSIGDVAKKLGEMWNNTAADDKQPYEKKAAKLKEKYEKDIAAYRAKGKPDAAKKGVVKAEKSKKKKEEEEDEEDEEDEEEEEDEEDEDEEEDDDDE | 1.213
HES5 (protein, UniProt Q5TA89 1-166, looked up) Transcription factor HES-5: MAPSTVAVELLSPKEKNRLRKPVVEKMRRDRINSSIEQLKLLLEQEFARHQPNSKLEKADILEMAVSYLKHSKAFVAAAGPKSLHQDYSEGYSWCLQEAVQFLTLHAASDTQMKLLYHFQRPPAAPAAPAKEPKAPGAAPPPALSAKATAAAAAAHQPACGLWRPW | -0.9865
HLF (protein, UniProt Q16534 1-295, looked up) Hepatic leukemia factor: MEKMSRPLPLNPTFIPPPYGVLRSLLENPLKLPLHHEDAFSKDKDKEKKLDDESNSPTVPQSAFLGPTLWDKTLPYDGDTFQLEYMDLEEFLSENGIPPSPSQHDHSPHPPGLQPASSAAPSVMDLSSRASAPLHPGIPSPNCMQSPIRPGQLLPANRNTPSPIDPDTIQVPVGYEPDPADLALSSIPGQEMFDPRKRKFSEEELKPQPMIKKARKVFIPDDLKDDKYWARRRKNNMAAKRSRDARRLKENQIAIRASFLEKENSALRQEVADLRKELGKCKNILAKYEARHGPL | 2.55
HELT (protein, UniProt A6NFD8 1-242, looked up) Hairy and enhancer of …: MSDKLKERKRTPVSHKVIEKRRRDRINRCLNELGKTVPMALAKQSSGKLEKAEILEMTVQYLRALHSADFPRGREKAELLAEFANYFHYGYHECMKNLVHYLTTVERMETKDTKYARILAFLQSKARLGAEPAFPPLGSLPEPDFSYQLHPAGPEFAGHSPGEAAVFPQGSGAGPFPWPPGAARSPALPYLPSAPVPLASPAQQHSPFLTPVQGLDRHYLNLIGHAHPNALNLHTPQHPPVL | -0.4669
HMG20B (protein, UniProt Q9P0W2 1-317, looked up) SWI/SNF-related …: MSHGPKQPGAAAAPAGGKAPGQHGGFVVTVKQERGEGPRAGEKGSHEEEPVKKRGWPKGKKRKKILPNGPKAPVTGYVRFLNERREQIRTRHPDLPFPEITKMLGAEWSKLQPTEKQRYLDEAEREKQQYMKELRAYQQSEAYKMCTEKIQEKKIKKEDSSSGLMNTLLNGHKGGDCDGFSTFDVPIFTEEFLDQNKAREAELRRLRKMNVAFEEQNAVLQRHTQSMSSARERLEQELALEERRTLALQQQLQAVRQALTASFASLPVPGTGETPTLGTLDFYMARLHGAIERDPAQHEKLIVRIKEILAQVASEHL | -0.2795
HES3 (protein, UniProt Q61657 1-175, looked up) Transcription factor HES-3: MEKKRRARINVSLEQLRSLLERHYSHQIRKRKLEKADILELSVKYMRSLQNSLQGLWPVPSGVDYPSGFQGGLRGVSQRLRPGEGDSGLRCPLLLQRREGSTTDSANPQATSVLNPCLPAIWAPSRAAGGSHSPQSPLPLPGGLLESSTDVVAPHPASNCQAESTRPGFRVWRPW | -1.103
HES2 (protein, UniProt Q9Y543 1-173, looked up) Transcription factor HES-2: MGLPRRAGDAAELRKSLKPLLEKRRRARINQSLSQLKGLILPLLGRENSNCSKLEKADVLEMTVRFLQELPASSWPTAAPLPCDSYREGYSACVARLARVLPACRVLEPAVSARLLEHLWRRAASATLDGGRAGDSSGPSAPAPAPASAPEPASAPVPSPPSPPCGPGLWRPW | -1.172
